Results as given in patent US20200392227A1 (LYVGEN BIOPHARMA, published 2020).
Where two headings read alike, the source gives them in different places.

Assays:
Assay in all cases: BLI
[1] = molecular target: T1, human FcRIIIA-F158 protein (MednaBio, E1036) (human, UniProt P08637 17-208)
T1 construct: Bought; also called FcγRIIIA(F)

[2] = molecular target: T2, human FcRIIIB protein (MednaBio, E1037) (human, UniProt O75015 17-200)
T2 construct: Bought; also called FcγRIIIB; FcgRIIIB

[3] = molecular target: T1, human FcRIIIA-F158 protein (MednaBio, …); remark: listed apart in the source
[4] = molecular target: T2, human FcRIIIB protein (MednaBio, E1037); remark: listed apart in the source
[5] = molecular target: T1, human FcRIIIA-F158 protein (MednaBio, …); remark: listed apart in the source
Outline: (§1)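 On an Octet Red96 System, anti-penta-HIS biosensors loaded with commercial human Fc receptor proteins were dipped into test IgG diluted 1:3 over 8 points from 300 nM. Fcγ receptor runs used pH 7.2 and FcRn runs used pH 6. Global fitting of these biolayer interferometry data gave the values for Kd, kon and koff, using a 1:1 binding model.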

[6] = molecular target: T2, human FcRIIIB protein (MednaBio, E1037); remark: listed apart in the source
Outline: as §1

[7] = molecular target: T1, human FcRIIIA-F158 protein (MednaBio, …); remark: listed apart in the source
Outline: as §1

[8] = molecular target: T2, human FcRIIIB protein (MednaBio, E1037); remark: listed apart in the source
Outline: as §1

[9] = molecular target: T3, human FcRI protein (MednaBio, E1031) (human, UniProt P12314 16-288, limits assumed)
T3 construct: Bought; loaded on anti-penta-HIS biosensors; also called FcγRI
T3 sequence (P12314 16-288 limits assumed): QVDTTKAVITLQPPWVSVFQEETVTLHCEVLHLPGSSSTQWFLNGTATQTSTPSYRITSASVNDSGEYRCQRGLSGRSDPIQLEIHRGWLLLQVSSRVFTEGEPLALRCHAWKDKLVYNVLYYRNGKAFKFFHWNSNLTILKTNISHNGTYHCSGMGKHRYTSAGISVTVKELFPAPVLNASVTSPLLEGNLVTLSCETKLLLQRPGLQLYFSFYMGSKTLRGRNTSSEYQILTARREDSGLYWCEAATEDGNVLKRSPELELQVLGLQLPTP
Outline: as §1

[10] = molecular target: T4, human FcRIIA protein (MednaBio, E1033) (human, UniProt P12318 34-218, limits assumed)
T4 construct: Bought; also called FcγRIIA
T4 sequence (looked up): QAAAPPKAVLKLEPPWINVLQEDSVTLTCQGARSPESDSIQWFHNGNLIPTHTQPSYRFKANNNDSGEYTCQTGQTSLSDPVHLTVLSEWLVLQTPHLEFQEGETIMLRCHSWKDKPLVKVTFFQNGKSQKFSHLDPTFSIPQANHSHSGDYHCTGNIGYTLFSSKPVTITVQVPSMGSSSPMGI
Outline: as §1

[11] = molecular target: T5, human FcRIIB/C protein (MednaBio, E1034) (human, UniProt P31994 43-217, limits assumed)
T5 construct: Bought as FcRIIB/C; also called FcγRIIB; CD32B
T5 sequence (looked up): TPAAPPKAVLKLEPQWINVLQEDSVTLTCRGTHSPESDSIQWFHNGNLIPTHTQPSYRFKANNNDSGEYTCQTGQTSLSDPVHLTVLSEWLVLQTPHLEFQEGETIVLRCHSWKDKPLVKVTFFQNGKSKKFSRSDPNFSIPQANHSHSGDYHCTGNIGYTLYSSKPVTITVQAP
Outline: as §1

[12] = molecular target: T1, human FcRIIIA-F158 protein (MednaBio, …); remark: listed apart in the source
Outline: as §1

[13] = molecular target: T6, human FcRIIIA-V158 protein (MednaBio, E1035) (human, UniProt P08637 17-208)
T6 construct: Bought; also called FcγRIIIA(V); FcgRIIIA(V)
T6 sequence (P08637 17-208 F176V): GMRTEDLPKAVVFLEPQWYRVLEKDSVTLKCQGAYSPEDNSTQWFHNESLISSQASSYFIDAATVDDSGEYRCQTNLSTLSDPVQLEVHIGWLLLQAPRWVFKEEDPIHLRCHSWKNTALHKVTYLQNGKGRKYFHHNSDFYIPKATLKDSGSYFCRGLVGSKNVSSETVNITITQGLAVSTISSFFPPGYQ
Outline: as §1

[14] = molecular target: T2, human FcRIIIB protein (MednaBio, E1037); remark: listed apart in the source
Outline: as §1

[15] = molecular target: T7, human FcRn protein (MednaBio, E1032) (human, UniProt P55899 24-297; P61769 21-119)
T7 construct: Bought; assays at pH 6
T7 sequence (P55899 24-297 limits assumed, form in doubt, chain 1 of 2): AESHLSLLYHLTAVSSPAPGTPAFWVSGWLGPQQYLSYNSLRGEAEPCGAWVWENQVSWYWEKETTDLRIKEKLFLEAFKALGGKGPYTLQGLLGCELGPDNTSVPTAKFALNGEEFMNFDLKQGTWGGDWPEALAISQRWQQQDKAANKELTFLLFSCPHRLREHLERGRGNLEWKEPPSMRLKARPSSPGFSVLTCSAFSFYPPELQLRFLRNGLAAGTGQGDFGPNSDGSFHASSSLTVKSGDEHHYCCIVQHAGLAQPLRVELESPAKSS
T7 sequence (P61769 21-119 limits assumed, form in doubt, chain 2 of 2): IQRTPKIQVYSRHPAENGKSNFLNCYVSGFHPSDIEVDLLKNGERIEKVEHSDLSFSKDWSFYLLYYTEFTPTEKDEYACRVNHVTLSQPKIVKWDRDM
Outline: as §1

T2 sequence (O75015 17-200 limits assumed): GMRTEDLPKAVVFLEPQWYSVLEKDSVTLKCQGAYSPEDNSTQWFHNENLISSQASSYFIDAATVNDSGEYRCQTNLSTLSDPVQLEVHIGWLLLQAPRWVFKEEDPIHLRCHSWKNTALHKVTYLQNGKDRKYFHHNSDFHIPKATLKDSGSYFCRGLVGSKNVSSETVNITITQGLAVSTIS
T1 sequence (P08637 17-208 limits assumed): as the sequence (P08637 17-208 F176V) above, with V160F counted along it

B1: wild-type human IgG1 control (antibody)
heavy: not shown
light: SYELTQPPSVSVSPGQTASITCSGDNIGDQYAHWYQQKPGQSPVLVIYQDKNRPSGIPERFSGSNSGNTATLTISGTQAMDEADYYCATYTGFGSLAVFGGGTKLTVLGQPKAAPSVTLFPPSSEELQANKATLVCLISDFYPGAVTVAWKADSSPVKAGVETTTPSKQSNNKYAASSYLSLTPEQWKSHRSYSCQVTHEGSTVEKTVAPTECS
notes: Control IgG
[1]
  Kd: 120 nM
  koff: 0.02 s⁻¹
  kon: 170000 M⁻¹ s⁻¹
[2]
  Kd: 130 nM
  koff: 0.027 s⁻¹
  kon: 210000 M⁻¹ s⁻¹
[3]
  Kd: 120 nM
  koff: 0.02 s⁻¹
  kon: 170000 M⁻¹ s⁻¹
[4]
  Kd: 130 nM
  koff: 0.027 s⁻¹
  kon: 210000 M⁻¹ s⁻¹
[5]
  Kd: 120 nM
  koff: 0.02 s⁻¹
  kon: 170000 M⁻¹ s⁻¹
[6]
  Kd: 130 nM
  koff: 0.027 s⁻¹
  kon: 210000 M⁻¹ s⁻¹
[7]
  Kd: 120 nM
  koff: 0.02 s⁻¹
  kon: 170000 M⁻¹ s⁻¹
[8]
  Kd: 130 nM
  koff: 0.027 s⁻¹
  kon: 210000 M⁻¹ s⁻¹
[9]
  Kd: 5.6 nM
  koff: 0.0012 s⁻¹
  kon: 220000 M⁻¹ s⁻¹
[10]
  Kd: 56 nM
  koff: 0.032 s⁻¹
  kon: 570000 M⁻¹ s⁻¹
[11]
  Kd: 130 nM
  koff: 0.016 s⁻¹
  kon: 120000 M⁻¹ s⁻¹
[12]
  Kd: 120 nM
  koff: 0.02 s⁻¹
  kon: 170000 M⁻¹ s⁻¹
[13]
  Kd: 60 nM
  koff: 0.027 s⁻¹
  kon: 450000 M⁻¹ s⁻¹
[14]
  Kd: 130 nM
  koff: 0.027 s⁻¹
  kon: 210000 M⁻¹ s⁻¹
[15]
  Kd: 16 nM
  koff: 0.008 s⁻¹
  kon: 480000 M⁻¹ s⁻¹
